Measurements reported in patent US7910708 (Novartis, dated 2011).
Positions count from the first letter of the chain named. One block for each binder: values may come before it.

Assays:
[1] = molecular target: T1, recombinant human IL-13 (human, UniProt P35225 35-146, limits assumed); experiment: cell-based or functional assay
[2] = molecular target: T1, recombinant human IL-13; experiment: SPR, BIAcore 2000; Fab captured via anti-human L-kappa antibody, hrIL-13 injected; 1:1 Langmuir model
Description: Quantitative Analysis of Binding Affinities: Determination of Anti-Human IL-13 Fab Candidates Surface plasmon resonance measurements quantifying the interaction of anti-IL-13 Fabs with several hrIL-13 are performed using the optical biosensor, BIAcore 2000. Specific binding of IL-13 to a respective IL-13 Fab immobilized on a BIAcore chip can be measured by following accumulation of the ligand on the receptor. The microscopic association ($kon$) and dissociation rates ($koff$) can be obtained directly from the mass accumulation rates on the chip and are expressed in response units (RUs). Anti-IL-13 Fab is immobilized on the chip surface via a secondary anti-human Lκ antibody (Jackson Immunochemicals). This capture antibody was covalently bound using the 'Amine coupling kit' (BIAcore, Cat. No. BR-1000-50) as recommended in the manufacturers' protocols. 250 μl of varying concentrations of hrIL-13 was injected at flow rate of 20 μl/min and the kinetic trace was recorded. The chip surface was regenerated by two acid wash steps using 100 mM HCl and injecting 10 μl with a flow rate of 20 μl/min. This treatment leads to dissociation of the Fab IL-13 complex due to reversible acid denaturation. No significant loss of binding activity was observed when the antibody was reinjected for a subsequent run. The kinetic traces were evaluated with the BIAcore software applying the 1:1 Langmuir association model The summarized affinity data on human IL-13 is shown in Table 1 herein.

T1 sequence (P35225 35-146 limits assumed): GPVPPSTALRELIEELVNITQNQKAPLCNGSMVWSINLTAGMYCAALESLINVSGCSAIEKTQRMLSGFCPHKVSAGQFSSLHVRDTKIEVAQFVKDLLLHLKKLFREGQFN

EC50 [nM] human IL-13 (IL-13-induced eotaxin release from human lung fibroblasts) [1]: 1.23 nM
B1: 01471/G6 antibody (human IgG1, kappa) (antibody, V domains shown)
VH: EVQLVESGGGVVQPGRSLRLSCAASGFTFSNYGMHWVRQAPGKGLEWVAIIWYDGSNKYYADSVKGRFTISRDNSKNTLYLQMNSLRAEDTAVYYCVKGSGDIPFDYWGQGTLVT
VL: EIVLTQSPATLSSSPGERATLSCRASQSVSSYLAWYQQKPGQAPRLLIYDASNRATGIPARFSGSGSGTDFTLTISSLEPEDFAVYYCHQRSHWPPIFTFGPGT

Kd [2]: 0.48 nM
B2: 01951/G12 Fab (Fab, V domains shown)
VH: EVQLVESGGGVVQPGRSLRLSCAASGFTFSSYGMHWVRQAPGKGLEWVAIIWYDGSNKYYADSVKGRFTISRDNSKNTLYLQMNSLRAEDTAVYYCARLWFGDLDAFDIWGQGTMVT
VL: B1 VL with S13L, T20I, S26G, A34V, H89Q, H93S, I97V, F98Y, P102Q
notes: Soluble human Fab expressed in E. coli, kappa light chain

EC50 [nM] human IL-13 (IL-13-induced eotaxin release from human lung fibroblasts) [1]: 1.71 nM
B3: 01771/E10 antibody (human IgG1, kappa) (antibody, V domains shown)
VH: B2 VH with E1Q, E6Q
VL: B1 VL with S13L, H93S

EC50 [nM] human IL-13 (IL-13-induced eotaxin release from human lung fibroblasts) [1]: 0.95 nM
B4: 03161/H2 antibody (human IgG1, kappa) (antibody, V domains shown)
VH: B1 VH
VL: B1 VL with I58T

Kd [2]: 0.1 nM
B5: 01471/G6 Fab (Fab, V domains shown)
VH: B1 VH
VL: B1 VL
notes: Soluble human Fab expressed in E. coli, kappa light chain (captured via anti-human L-kappa antibody); the printed variable regions stop short of the end of framework 4

Kd [2]: 0.197 nM
B6: 03161/H2 Fab (Fab, V domains shown)
VH: B1 VH
VL: B1 VL with I58T
notes: as for B2

Kd [2]: 0.343 nM
B7: 01771/E10 Fab (Fab, V domains shown)
VH: B2 VH with E1Q, E6Q
VL: B1 VL with S13L, H93S
notes: as for B2

EC50 [nM] human IL-13 (IL-13-induced eotaxin release from human lung fibroblasts) [1]: 0.33 nM
B8: 01951/G12 antibody (human IgG1, kappa) (antibody, V domains shown)
VH: EVQLVESGGGVVQPGRSLRLSCAASGFTFSSYGMHWVRQAPGKGLEWVAIIWYDGSNKYYADSVKGRFTISRDNSKNTLYLQMNSLRAEDTAVYYCARLWFGDLDAFDIWGQGTMVTVSS
VL: EIVLTQSPATLSLSPGERAILSCRAGQSVSSYLVWYQQKPGQAPRLLIYDASNRATGIPARFSGSGSGTDFTLTISSLEPEDFAVYYCQQRSSWPPVYTFGQGTKLEIKR
